± gives the standard error. Fewer inactive variants are shown than the library holds.
B1: glmS ribozyme (parent)
chain: AUAAAAGCGCCAGAACUACAGAAAUGUAGUUGACGAGGAGGAGGUUUAUCGAAUUUUCGGCGGAUGCCUCCAAA

Key:
Conditions in all cases: with glucosamine-6-phosphate
glucosamine-6-phosphate [1] = variants of: B1; assay: self-cleavage kobs at 40 uM GlcN6P; higher = faster cleavage; RNA array
In short: (§1)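 The measurements used barcoded ribozyme variants on sequenced MiSeq chips, transcribed in situ by E. coli RNA polymerase and tracked at 37 °C with a hybridised Cy3 probe. Glucosamine-6-phosphate, 40 μM to 10 mM in HEPES/KCl/Mg(OAc)2 buffer, was flowed in while tiles were imaged over ~14 h. Baseline-normalised signals, also normalised to non-cleaving reference variants, gave per-tile medians that were fit to one- or two-exponential decays for kobs. kcat and KM resulted from weighted Michaelis–Menten fits across concentrations.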

glucosamine-6-phosphate [2] = variants of: B1; assay: self-cleavage kobs at 10000 uM GlcN6P; higher = faster cleavage; RNA array
In short: as §1

glucosamine-6-phosphate [3] = variants of: B1; assay: self-cleavage kobs at 160 uM GlcN6P; higher = faster cleavage; RNA array
In short: as §1

glucosamine-6-phosphate [4] = variants of: B1; assay: self-cleavage kobs at 640 uM GlcN6P; higher = faster cleavage; RNA array
In short: as §1

glucosamine-6-phosphate [5] = variants of: B1; assay: self-cleavage kobs at 2500 uM GlcN6P; higher = faster cleavage; RNA array
In short: as §1

Variant	self-cleavage kobs at 40 uM GlcN6P (glucosamine-6-phosphate [1])	self-cleavage kobs at 10000 uM GlcN6P (glucosamine-6-phosphate [2])	self-cleavage kobs at 160 uM GlcN6P (glucosamine-6-phosphate [3])	self-cleavage kobs at 640 uM GlcN6P (glucosamine-6-phosphate [4])	self-cleavage kobs at 2500 uM GlcN6P (glucosamine-6-phosphate [5])
C10G C50G C58A C61A	9.48e-05 ± 2.9e-05 s⁻¹	5.26e-05 ± 2e-05 s⁻¹	–	–	–
C11A C34G	< 1e-05 s⁻¹	< 1e-05 s⁻¹	< 1e-05 s⁻¹	< 1e-05 s⁻¹	–
C10U A12G G32U A36U C70U	< 1e-05 s⁻¹	–	–	–	–
C10G A33U C67G	< 1e-05 s⁻¹	–	–	–	–
G9C U45C	< 1e-05 s⁻¹	–	–	–	< 1e-05 s⁻¹
C10U G43C C50U C70U	< 1e-05 s⁻¹	< 1e-05 s⁻¹	–	–	< 1e-05 s⁻¹
C10A U46G	< 1e-05 s⁻¹	–	< 1e-05 s⁻¹	< 1e-05 s⁻¹	< 1e-05 s⁻¹
C10U G38A G66U	< 1e-05 s⁻¹	–	–	–	–
G9U U30C A36C	< 1e-05 s⁻¹	–	–	< 1e-05 s⁻¹	< 1e-05 s⁻¹
C10U A36C U56C	< 1e-05 s⁻¹	–	–	–	–
C11G C68A	< 1e-05 s⁻¹	–	–	–	–
C10U U45A G51U C67A	< 1e-05 s⁻¹	–	–	–	–
C10A U30G	< 1e-05 s⁻¹	–	< 1e-05 s⁻¹	–	–
G9U U49G	< 1e-05 s⁻¹	< 1e-05 s⁻¹	< 1e-05 s⁻¹	< 1e-05 s⁻¹	–
G9C U45C U47A C67G	< 1e-05 s⁻¹	–	–	–	–
G9C A14U G51A C70G	< 1e-05 s⁻¹	–	–	–	–
C10A U47C U54C G66U	< 1e-05 s⁻¹	< 1e-05 s⁻¹	–	–	–
C10G C16U	< 1e-05 s⁻¹	–	< 1e-05 s⁻¹	–	–
C10U C16U G38A A48G	< 1e-05 s⁻¹	< 1e-05 s⁻¹	–	–	–
C11A A14U A36U U46A	< 1e-05 s⁻¹	< 1e-05 s⁻¹	–	–	< 1e-05 s⁻¹
C10A A15U C16U C34U	< 1e-05 s⁻¹	–	–	–	–
G9C G13U G41U G63U	< 1e-05 s⁻¹	< 1e-05 s⁻¹	–	–	–
C10A G40U	< 1e-05 s⁻¹	< 1e-05 s⁻¹	< 1e-05 s⁻¹	< 1e-05 s⁻¹	–
G9C G37U	< 1e-05 s⁻¹	–	< 1e-05 s⁻¹	< 1e-05 s⁻¹	< 1e-05 s⁻¹
C10U A15G C67G	< 1e-05 s⁻¹	–	–	6.46e-05 ± 2.3e-05 s⁻¹	–
C11A U49G C67G	4.47e-05 ± 1.8e-05 s⁻¹	–	–	–	–
C10G A15G U30G G63U	< 1e-05 s⁻¹	< 1e-05 s⁻¹	–	< 1e-05 s⁻¹	–
C10G G29A G37A G38U G41C C71U	< 1e-05 s⁻¹	< 1e-05 s⁻¹	–	–	–
G9U A33C U69G	< 1e-05 s⁻¹	–	–	–	–
